Assay results taken from the supplement of paper PMC10567573.
± gives the standard deviation.

Assay: protein stability index of a GFP-peptide fusion (GPS, HEK-293T) (PSI 1-6); higher = more stable
[1] = treatment: DMSO, c terminus: a fixed tail appended
[2] = treatment: MLN4924 1 uM, 8 h, c terminus: a fixed tail appended
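Further: 24-mer peptide tiles fused after GFP, lentivirally expressed, FACS-sorted into six equal bins by GFP/DsRed ratio, decoded by Illumina sequencing, PSI is the read-weighted mean bin number.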

| Sequence | protein stability index [1] | protein stability index [2] | protein stability index (treatment: DMSO, c terminus: native) | protein stability index (treatment: MLN4924 1 uM, 8 h, c terminus: native) |
| --- | --- | --- | --- | --- |
| GNAKGKILVLKTDSQDLVASFRVT [RBBP5] | 2.17 ± 0.19 | 2.11 ± 0.28 |  |  |
| AKIRAKIPGTGALASAAAAVSGSK [RTN2] | 4.3 ± 0.15 | 4.64 ± 0.34 |  |  |
| FSTCGSHLTVVAIFYGSGIFNYMR [OR3A1] | 2.89 ± 0.56 | 2.94 ± 0.49 |  |  |
| SNPGVDFGDVSERLALRQRLKCRS [GALNT9] | 4.43 ± 0.1 | 4.56 ± 0.17 |  |  |
| EVPQLPPRASISHVTCVDQSEHTM [C2CD2L] | 4.66 ± 0.15 | 4.7 ± 0.25 |  |  |
| IRTANCTTANQNCVNKSKLLTDV [KCNA1] |  |  | 3.19 ± 0.13 | 3.35 ± 0.28 |
| LLHMPQPVNPELTAGPITGLVYRL [TRIM43] | 2.26 ± 0.3 | 2.67 ± 0.36 |  |  |
| VEKFIYENHPDVFSDSSMDHFQKF [MYOZ1] | 2.94 ± 0.2 | 3.09 ± 0.19 |  |  |
| PSFCPVQPCFFQDISMEIPQEFQK [SCAMP3] | 3.64 ± 0.35 | 3.69 ± 0.21 |  |  |
| DLKTLSDDIKESLESEGKNSKKEE [ATE1] | 5.31 ± 0.54 | 5.32 ± 0.31 |  |  |
| QFLFIYQLPFCGPNVIDNFLCDLY [OR4A15] | 3.04 ± 0.11 | 2.86 ± 0.38 |  |  |
| TSCKLTDLRGVCVSGKCEPIGCDG [ADAMTSL2] | 3.4 ± 0.12 | 3.28 ± 0.27 |  |  |
| TILLSYGVILHSLKTQSLEGKRKA [OR4A15] | 2.5 ± 0.082 | 2.41 ± 0.55 |  |  |
| QHEEICLGLFTLILTEPAQAQKCY [INTS3] | 2.24 ± 0.46 | 2.32 ± 0.41 |  |  |
| HYYLMDDTVEIREVHERNDGIDPF [EFHC1] | 3.92 ± 0.18 | 3.86 ± 0.32 |  |  |
| AAPPPLKDDPEGDRDGCVITKVLL [ZBED3] | 3.62 ± 0.27 | 3.62 ± 0.27 |  |  |
| KKKYMPYNHQHKYFFLIGPPALLP [FADS1] | 3.14 ± 0.67 | 1.76 ± 0.053 |  |  |
| NMERIMKAQALRDNSTMGYMMAKK [HSP90AB1] | 3.38 ± 0.19 |  |  |  |
| ALCATDVKFISNPPSMVAAGSVVA [CCND1] | 2.86 ± 0.28 | 3 ± 0.23 |  |  |
| GAPLIRVHSSPVSSPSVSGPRRLV [SPACA3] | 3.24 ± 0.31 | 3.6 ± 0.19 |  |  |
| GHLCAAEVVKIRDSFSNQNTETKD [DLC1] | 4.18 ± 0.063 | 4.14 ± 0.22 |  |  |
| SDLEDMEEEEGTRSPTLEPPRGRS [SMG5] | 5.37 ± 0.16 | 5.39 ± 0.2 |  |  |
| GLGYFSCHSHTVVQDYSYFFFLRM [CCDC3] | 2.66 ± 0.71 | 2.3 ± 0.55 |  |  |

| Sequence | protein stability index [1] | protein stability index [2] | protein stability index (treatment: DMSO, c terminus: native) | protein stability index (treatment: MLN4924 1 uM, 8 h, c terminus: native) |
| --- | --- | --- | --- | --- |
| LTQKRSQLVKKLNDSDHQSSTSPL [VPS39] | 4.8 ± 0.23 | 4.69 ± 0.29 |  |  |
| TLPVSGNLLDVYSSQGVATPAITV [TFE3] | 2.58 ± 0.24 | 2.73 ± 0.27 |  |  |
| YQPEPFACGIEHCSVHYVSDSGDG [FBXO34] | 2.93 ± 0.27 | 3.04 ± 0.26 |  |  |
| DSISLHQPCNPPAPAGDKGFQPPS [DMRTC1] | 5 ± 0.27 | 5 ± 0.16 |  |  |
| FTTFRGTELSFLVTTHQPTNLVLP [EDNRA] | 2.84 ± 0.74 | 2.29 ± 0.37 |  |  |
| TAPLYKDEKEQLIIPQVPLFNILA [USP39] | 2.15 ± 0.13 | 2.09 ± 0.39 |  |  |
| IPGHGGIMDRFDCQYLMATFVNVY [CDS2] | 3 ± 0.46 | 2.54 ± 0.51 |  |  |
| KPAEYGYVSLGRLGAAKGALHPGC [CEBPB] | 2.94 ± 0.11 | 3.06 ± 0.32 |  |  |
| LYQTELVENECYQVFLDRINRADY [TOR1AIP2] | 2.45 ± 0.27 | 2.71 ± 0.15 |  |  |
| CIHDHHCGSQLSSTKGSRSNLSTR [NETO1] | 3.04 ± 0.52 | 3.33 ± 0.37 |  |  |
| EQILELLVLEQFLTILPTEIETWV [ZNF449] | 3.15 ± 0.38 | 2.73 ± 0.52 |  |  |
| AEKRQIGDQEGPRPARSTLDELLG [FBF1] | 4.64 ± 0.22 | 4.93 ± 0.1 |  |  |
| KINENVAAGMRFPLPEAIDPDVGV [PCDHGA10] | 3.79 ± 0.081 | 4.26 ± 0.44 |  |  |
| WGKGARGRLGRRDEDAGLPRPVQL [NEK8] | 3.37 ± 0.23 | 3.48 ± 0.32 |  |  |
| FSPIAIDGMSGLAGVGLSGGAAGA [ELAVL3] | 3.04 ± 0.26 | 3.2 ± 0.26 |  |  |
| KKVLNHGYDDDNHDYIVRSGERWL [DYRK1B] | 3.27 ± 0.39 | 3.55 ± 0.49 |  |  |
| KGRHHRGRGGEPRAYFMSDTREEK [CHGB] | 4.93 ± 0.12 | 4.95 ± 0.096 |  |  |
| EDGFGEHPFYHCLVAEVPKEHWTP [SAT1] | 3.05 ± 0.22 | 3.12 ± 0.27 |  |  |
| LSFSDALLSIIATVMILPVTHTEI [TMEM175] | 3.15 ± 0.29 | 2.88 ± 0.58 |  |  |
| QKVDQFDPFTVPTISFICRELDAI [PRIM1] | 2.2 ± 0.24 | 2.31 ± 0.33 |  |  |
| FLWGPRALVETSYVKVLHHMVKIS [MAGEA3] | 2.01 ± 0.35 | 2.64 ± 0.71 |  |  |
| LQAELAAQEALREKAAALERQLKV [LRRC45] | 4.18 ± 0.094 | 4.25 ± 0.29 |  |  |
| HYVAQTGILWLLMNNCFLNLSPRK [GAGE1] | 2.72 ± 0.38 | 3.584 ± 0.027 |  |  |

| Sequence | protein stability index [1] | protein stability index [2] | protein stability index (treatment: DMSO, c terminus: native) | protein stability index (treatment: MLN4924 1 uM, 8 h, c terminus: native) |
| --- | --- | --- | --- | --- |
| QLRCEMEQQNQEYKILLDVKTRLE [KRT17] | 3.63 ± 0.28 | 3.83 ± 0.098 |  |  |
| TIIPILQHLKYKEHPEALSCLLLQ [INTS3] | 2.35 ± 0.15 | 2.25 ± 0.14 |  |  |
| TDLEMQIESLNEELAYMKKNHEEE [KRT13] | 5.4 ± 0.16 | 5.433 ± 0.051 |  |  |
| DICLAQLEELGTLNVFQTVSRMRT [PTPN9] | 2.97 ± 0.22 | 2.79 ± 0.33 |  |  |
| TKNKELTDEFRELRATVERMGLMK [FADS1] | 3.71 ± 0.37 | 3.55 ± 0.27 |  |  |
| EGQARCLAHLGRHMEALEIAANLE [C8orf76] | 3.6 ± 0.42 | 3.74 ± 0.39 |  |  |
| PLHNSGLLSLDPVQDKTPLYSQLL [MED27] | 2.76 ± 0.27 | 2.92 ± 0.34 |  |  |
| TFGPIPEFSRATAEKVNQDMCMKV [CRYL1] | 3.9 ± 0.25 | 3.94 ± 0.17 |  |  |
| RLHLAFKRQVPREQAQAYAERLGV [RAB40A] | 2.76 ± 0.16 | 3.12 ± 0.18 |  |  |
| TPLHVAAFLGDAEIIELLILSGAR [ANKRD44] | 2.57 ± 0.7 | 2.52 ± 0.22 |  |  |
| GARPVSSAASVYAGAGGSGSRISV [KRT18] | 3.66 ± 0.34 | 3.75 ± 0.19 |  |  |
| FAKLEKLTILAKRKSLFDDKAVEI [STX5] | 2.47 ± 0.23 | 2.48 ± 0.53 |  |  |
| PPPSRPSVAVPPPPPNRMYPPPPP [WASL] | 4.48 ± 0.2 | 4.49 ± 0.2 |  |  |
| CQMFLGKTEAEIAHIALETLEGHQ [FLOT1] | 3.36 ± 0.43 | 3.37 ± 0.13 |  |  |
| LTFAKSSWARQESLQERKQALYEY [AUP1] | 2.78 ± 0.43 | 2.67 ± 0.39 |  |  |
| QYYRTIEELQNKILTATVDNANIL [KRT17] | 2.22 ± 0.2 | 2.23 ± 0.2 |  |  |
| YDSFDSEDYPAALPNHKPKGTFKD [ETS1] | 5.05 ± 0.17 | 4.83 ± 0.22 |  |  |
| QLEKPPEKEEDHAPEFIKVRENLR [FAM107A] | 5.29 ± 0.23 | 5.32 ± 0.16 |  |  |
| PRAVFVLLEERRPADSAQLLSLNS [TFE3] | 2.29 ± 0.12 | 2.4 ± 0.2 |  |  |
| NKLTTLPSDFCGLTHLVKLDLSKN [LRRC59] | 2.37 ± 0.12 | 2.31 ± 0.14 |  |  |
| LEDLERELDEPQHEMVAHRHRQEV [ZSCAN9] | 5.56 ± 0.12 | 5.47 ± 0.072 |  |  |
| EKEYKTYKENFLKRFQLTKLPPYL [USP39] | 2.5 ± 0.17 | 2.93 ± 0.28 |  |  |
| PDFPSINMDPAGLDDEDDTSIGMP [RETREG3] | 5.49 ± 0.18 | 5.53 ± 0.11 |  |  |

| Sequence | protein stability index [1] | protein stability index [2] | protein stability index (treatment: DMSO, c terminus: native) | protein stability index (treatment: MLN4924 1 uM, 8 h, c terminus: native) |
| --- | --- | --- | --- | --- |
| RQQVTNHGRGTEVLLEEPLPLETA [ZNF263] | 5 ± 0.28 | 5.04 ± 0.17 |  |  |
| SPLLETFSDLQVYSYRRLGEEALS [SLC22A15] | 2.44 ± 0.31 | 2.27 ± 0.23 |  |  |
| LIQQFLTLRPDQQLHIFNTLRSHL [CDS2] | 2.37 ± 0.16 | 2.34 ± 0.27 |  |  |
| LYAFFTRTHGDMHSLVRSRHRIPE [TRIB3] | 2.18 ± 0.046 | 2.26 ± 0.45 |  |  |
| TQPTHGQFALTNGDPLNCHSYLSG [NR2F2] | 3.69 ± 0.17 | 3.87 ± 0.23 |  |  |
| NKHLCYVFDSEKCVSIPDVVGWFV [GULP1] | 2.76 ± 0.88 | 2.13 ± 0.51 |  |  |
| NWIELLSGETWNPLKLHYQLRNVR [GOLPH3] | 2.43 ± 0.73 | 2.36 ± 0.61 |  |  |
| DGNLCLHVPNPPSGISFPSVVDHP [HESX1] | 3.73 ± 0.5 | 3.78 ± 0.15 |  |  |
| PPGSHLLYAKMIQKLADLRSLNEE [VDR] | 2.61 ± 0.11 | 2.67 ± 0.25 |  |  |
| YQHLEEDMKSLKQVLEMKNQQIHE [MTUS2] | 4.07 ± 0.11 | 4.27 ± 0.36 |  |  |
| EIHSKTTAYSRLNETQPIDLSGLP [RNF180] | 3.6 ± 0.14 | 3.75 ± 0.25 |  |  |
| SSSYEQFNGELPNGRHKIPESQFP [SRPK2] | 4.1 ± 0.24 | 4.21 ± 0.22 |  |  |
| VRDMMANFHLNDLEAPHEDDAEGE [TCF25] | 5.48 ± 0.13 | 5.3 ± 0.31 |  |  |
| VTQEPRAKKGRRNQSVEPKKEEPE [ZMYND11] | 5.45 ± 0.24 | 5.6 ± 0.21 |  |  |
| HARLRLSADRLTVRCGLLGSLGPV [TRIM14] | 2.2 ± 0.65 | 2.31 ± 0.3 |  |  |
| VKKCIFLLFINHRLVESTSLRKAI [MLH1] | 3.14 ± 0.47 | 2.97 ± 0.73 |  |  |
| HQGIKPYKCSWCGKSFSQNTNLHT [ZNF75A] | 2.1 ± 0.002 | 2.52 ± 0.25 |  |  |
| QAREKELLELQSQQACTHTKETEQ [CCDC89] | 5.55 ± 0.21 | 5.61 ± 0.17 |  |  |
| TVSTSEVTSQQEPQIPVDRGSETT [TAF7L] | 5.49 ± 0.12 | 5.44 ± 0.16 |  |  |
| CKESSPMPVICGPEENYPSLQMSS [NANOGP8] | 3.65 ± 0.27 | 3.74 ± 0.25 |  |  |
